The supplement of paper PMC7877785
± gives the uncertainty stated by the source.

Assay: self-splicing fitness, log relative to wild type (ln ratio); higher = more splicing; Tetrahymena group I intron in knt gene, E. coli kanamycin selection, DiMSum; sequences stand for … in CUCUCU…GGAGGGAAAAGUUAUCAGGCAUGCACCUGGUAGCUAGUCUUUAAACCAAUAGAUUGCAUCGGUUUAAAAGGCAAGACCGUCAAAUUGCGGGAAAGGGGUCAACAGCCGUUCAGUACCAAGUCUCAGGGGAAACUUUGAGAUGGCCUUGCAAAGGGUAUGGUAAUAAGCUGACGGACAUGGUCCUAACCACGCAGCCAAGUCCUAAGUCAACAGAUCUUCUGUUGAUAUGGAUGCAGUUCACAGACUAAAUGUCGGUCGGGGAAGAUGUAUUCUUCUCAUAAGAUAUAGUCGGACCUCUCCUUAAUGGGAGCUAGCGGAUGAAGUGAUGCAACACUGGAGCCGCUGGGAACUAAUUUGUAUGCGAAAGUAUAUUGAUUAGUUUUGGAGUACUCGUGGUCG
Procedure, shortened: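 Six replicate transformations of E. coli BL21(DE3) with a pET-22b(+) library were grown overnight at 37°C or 30°C. The library randomised all eight P1ex-region intron nucleotides, the intron lying in the knt kanamycin-resistance gene, and plates were LB agar with or without 25 μg/mL kanamycin plus 100 μg/mL carbenicillin, 50 μM IPTG and 0.2% rhamnose. Pooled colonies were amplicon-sequenced on an Illumina HiSeq 2500, and fitness is the DiMSum error-weighted combination of wild-type-normalised replicate fold changes, kanamycin versus none.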

Sequence | self-splicing fitness (ln) (30 °C) | self-splicing fitness (ln) (37 °C)
AGCCAGCAAUAUUACGGCCG | -1.29 ± 0.11 | -0.262 ± 0.13
GAAAAGCAAUAUUACGGAAC | -2.14 ± 0.13 | -1.25 ± 0.15
CUUUAGCAAUAUUACGCGGU | -2.14 ± 0.19 | -0.796 ± 0.22
UAGUAGCAAUAUUACGCGUA | -1.53 ± 0.25 | -1.94 ± 0.17
GAUAAGCAAUAUUACGCGUG | -0.603 ± 0.072 | -0.471 ± 0.088
UGGCAGCAAUAUUACGCGAC | -2.66 ± 0.35 | -1.64 ± 0.44
UGCCAGCAAUAUUACGACGA | -1.01 ± 0.12 | -1.01 ± 0.12
AACUAGCAAUAUUACGUUCG | -3.36 ± 0.26 | -1.79 ± 0.16
CCUUAGCAAUAUUACGGAUU | -3.31 ± 0.22 | -2.38 ± 0.36
UUCGAGCAAUAUUACGCUGC | -3.44 ± 0.44 | –
CGACAGCAAUAUUACGAUCA | -0.455 ± 0.07 | 0.458 ± 0.096
UCAGAGCAAUAUUACGUCCU | -3.91 ± 0.42 | –
AGAAAGCAAUAUUACGCGGG | -2.43 ± 0.24 | -2.25 ± 0.26
ACUUAGCAAUAUUACGACAC | -2.03 ± 0.14 | -0.762 ± 0.2
CCUCAGCAAUAUUACGCGGU | -3.37 ± 0.19 | -2.98 ± 0.33
AUGAAGCAAUAUUACGAACU | -0.587 ± 0.074 | 0.606 ± 0.098
GAGGAGCAAUAUUACGGGAU | -2.69 ± 0.28 | –
UGGGAGCAAUAUUACGUCGU | -2.14 ± 0.2 | -2 ± 0.46
CAAUAGCAAUAUUACGGUUU | -2.88 ± 0.13 | -1.88 ± 0.15
AGCUAGCAAUAUUACGCCCG | – | -0.486 ± 0.32
UGGGAGCAAUAUUACGUUAC | -2.73 ± 0.47 | –
GCCUAGCAAUAUUACGCAUA | -0.13 ± 0.18 | -0.428 ± 0.15

Sequence | self-splicing fitness (ln) (30 °C) | self-splicing fitness (ln) (37 °C)
GCGAAGCAAUAUUACGAAGG | -0.597 ± 0.23 | -0.295 ± 0.3
GCCCAGCAAUAUUACGUAAG | -1.15 ± 0.072 | -0.871 ± 0.1
UACCAGCAAUAUUACGUUUA | -0.529 ± 0.052 | -0.264 ± 0.064
UGUAAGCAAUAUUACGACAU | -1.44 ± 0.015 | -0.831 ± 0.034
UCAGAGCAAUAUUACGUUUU | -3.84 ± 0.26 | -3.13 ± 0.26
GUUGAGCAAUAUUACGCGAG | -1.35 ± 0.18 | -0.457 ± 0.17
CAUUAGCAAUAUUACGUCGG | -0.0974 ± 0.13 | 0.403 ± 0.14
AGCUAGCAAUAUUACGUCCA | -1.52 ± 0.12 | -0.378 ± 0.11
GCCAAGCAAUAUUACGGGAU | -0.936 ± 0.075 | -0.693 ± 0.099
AUGAAGCAAUAUUACGUUGU | -1.99 ± 0.12 | -0.91 ± 0.12
GUAUAGCAAUAUUACGGUGC | -2.45 ± 0.23 | -1.76 ± 0.36
UAGGAGCAAUAUUACGGAUC | -3.44 ± 0.41 | -0.998 ± 0.39
CUUGAGCAAUAUUACGAGUA | -2.07 ± 0.37 | -2.52 ± 0.32
CAGCAGCAAUAUUACGCGAG | -2.74 ± 0.15 | -1.7 ± 0.15
UGGCAGCAAUAUUACGGUGU | -3.4 ± 0.14 | -2.41 ± 0.16
GGAGAGCAAUAUUACGGUCU | – | -2.31 ± 0.48
UCUCAGCAAUAUUACGGCCU | – | -1.67 ± 0.34
AUUGAGCAAUAUUACGGCGG | -3.01 ± 0.19 | -1.05 ± 0.38
GGAUAGCAAUAUUACGCGCG | -1.25 ± 0.13 | 0.793 ± 0.15
GCACAGCAAUAUUACGACUA | -1.17 ± 0.11 | -0.702 ± 0.085
AUCGAGCAAUAUUACGCAGA | -3.09 ± 0.18 | -2.46 ± 0.16
AAGGAGCAAUAUUACGUGUC | – | -2.12 ± 0.32

Sequence | self-splicing fitness (ln) (30 °C) | self-splicing fitness (ln) (37 °C)
CAGUAGCAAUAUUACGAGUU | -3.52 ± 0.18 | -2.06 ± 0.15
AAGGAGCAAUAUUACGUAGU | – | -2.03 ± 0.27
CACAAGCAAUAUUACGGUAA | -2.26 ± 0.096 | -2.21 ± 0.12
CUUUAGCAAUAUUACGGUUC | -3.33 ± 0.3 | -2.83 ± 0.29
AGGGAGCAAUAUUACGCCUU | -3.04 ± 0.36 | –
CUUUAGCAAUAUUACGCACG | -1.41 ± 0.21 | -0.277 ± 0.2
ACGCAGCAAUAUUACGUAAG | -0.0743 ± 0.099 | -1.27 ± 0.13
CCUGAGCAAUAUUACGAGGU | -2.72 ± 0.17 | -1.99 ± 0.15
UCGAAGCAAUAUUACGAUGG | -0.763 ± 0.079 | -0.538 ± 0.13
CGUAAGCAAUAUUACGCGUG | -1.79 ± 0.088 | -0.855 ± 0.12
UUCUAGCAAUAUUACGCACC | -2.54 ± 0.18 | -1.94 ± 0.23
AGGCAGCAAUAUUACGGAGG | -4.29 ± 0.26 | -2.66 ± 0.25
CCUUAGCAAUAUUACGACGU | -2.25 ± 0.18 | -1.9 ± 0.23
CCUUAGCAAUAUUACGUAGC | -2.7 ± 0.18 | -1.8 ± 0.21
UUGAAGCAAUAUUACGCCGC | – | -2.1 ± 0.43
ACAUAGCAAUAUUACGCCAA | – | -2.32 ± 0.28
GUACAGCAAUAUUACGAGGC | -3.95 ± 0.46 | -1.41 ± 0.18
CCAGAGCAAUAUUACGCCAA | – | -3.04 ± 0.47
GAUUAGCAAUAUUACGCAGA | -3.16 ± 0.23 | -1.16 ± 0.16
GUCUAGCAAUAUUACGAGAA | -1.8 ± 0.39 | -0.829 ± 0.27
UGAGAGCAAUAUUACGCUUA | – | -2.05 ± 0.3
